According to US20260184814A1, “BROADLY NE[…] INFLUENZA NEURAMINIDASE” (priority 2022, published 2026):
Read-outs that look alike come from different tables or passages of the source.

Tests used:
human FcγRIIb (human) [1] = molecular target: human FcγRIIb (human) (UniProt P31994); experiment: MSD [cont'd]
[2] = molecular target: human FcγRIIIa (V158 allele) (human) (UniProt P08637); experiment: MSD [cont'd]
[3] = molecular target: human FcγRIIa (H131 allele) (human) (UniProt P12318); experiment: MSD [cont'd]
human FcRn (human) [4] = molecular target: human FcRn (human) (UniProt P55899); experiment: MSD [cont'd]
[5] = molecular target: human FcγRIIa (R131 allele) (human) (UniProt P12318); experiment: MSD [cont'd]
human C1q (human) [6] = molecular target: human C1q (human) (UniProt P02745); experiment: MSD [cont'd]
[7] = molecular target: human FcγRIIIa (F158 allele) (human) (UniProt P08637); experiment: MSD [cont'd]
human FcRn (human) [8] = molecular target: human FcRn (human) (UniProt P55899); experiment: MSD, pH 6 [cont'd]
human FcγRIIb (human) [9] = molecular target: human FcγRIIb (human) (UniProt P31994); experiment: MSD
[10] = molecular target: human FcγRIIa (H131 allele) (human) (UniProt P12318); experiment: MSD
[11] = molecular target: human FcγRIIa (R131 allele) (human) (UniProt P12318); experiment: MSD
[12] = molecular target: human FcγRIIIa (V158 allele) (human) (UniProt P08637); experiment: MSD [cont'd]; remark: listed apart in the source
human C1q (human) [13] = molecular target: human C1q (human) (UniProt P02745); experiment: MSD [cont'd]; remark: listed apart in the source
[14] = molecular target: human FcγRIIIa (F158 allele) (human) (UniProt P08637); experiment: MSD [cont'd]; remark: listed apart in the source
human FcγRIIb (human) [15] = molecular target: human FcγRIIb (human) (UniProt P31994)
[16] = molecular target: human FcγRIIIa (V158 allele) (human) (UniProt P08637)
[17] = molecular target: human FcγRIIa (H131 allele) (human) (UniProt P12318)
[18] = molecular target: human FcγRIIIa (F158 allele) (human) (UniProt P08637)
human FcγRIIb (human) [19] = molecular target: human FcγRIIb (human) (UniProt P31994); experiment: MSD [cont'd]; remark: listed apart in the source
[20] = molecular target: human FcγRIIa (H131 allele) (human) (UniProt P12318); experiment: MSD [cont'd]; remark: listed apart in the source
human FcRn (human) [21] = molecular target: human FcRn (human) (UniProt P55899); experiment: MSD [cont'd]; remark: listed apart in the source
[22] = molecular target: human FcγRIIa (R131 allele) (human) (UniProt P12318); experiment: MSD [cont'd]; remark: listed apart in the source
human FcγRIIIb (human) = human FcγRIIIb (human) (UniProt O75015); experiment: MSD [cont'd]
[23] = molecular target: human FcγRIIIa (V158 allele) (human) (UniProt P08637); remark: listed apart in the source
[24] = molecular target: human FcγRIIIa (F158 allele) (human) (UniProt P08637); remark: listed apart in the source

human FcγRIIb (human), sequence (P31994 43-217 limits assumed): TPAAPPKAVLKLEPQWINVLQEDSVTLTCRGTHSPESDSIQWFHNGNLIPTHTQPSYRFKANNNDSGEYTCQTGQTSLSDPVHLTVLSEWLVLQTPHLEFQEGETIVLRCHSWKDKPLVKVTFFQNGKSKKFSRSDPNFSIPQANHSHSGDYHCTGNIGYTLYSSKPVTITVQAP
human FcγRIIIa (F158 allele) (human), sequence (P08637 17-208 limits assumed): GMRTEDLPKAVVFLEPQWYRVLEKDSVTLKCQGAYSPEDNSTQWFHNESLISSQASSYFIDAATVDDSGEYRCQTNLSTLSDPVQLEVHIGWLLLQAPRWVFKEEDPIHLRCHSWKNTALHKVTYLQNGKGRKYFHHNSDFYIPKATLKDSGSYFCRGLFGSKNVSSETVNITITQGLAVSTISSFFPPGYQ
human FcγRIIIb (human), sequence (O75015 17-200 limits assumed): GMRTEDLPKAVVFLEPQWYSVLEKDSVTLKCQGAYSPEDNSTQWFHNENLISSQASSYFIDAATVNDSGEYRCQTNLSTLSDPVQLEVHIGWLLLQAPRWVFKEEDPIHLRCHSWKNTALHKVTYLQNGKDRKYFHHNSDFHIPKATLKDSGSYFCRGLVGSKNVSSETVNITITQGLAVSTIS
human C1q (human), sequence (P02745 23-245 limits assumed, chain 1 of 3): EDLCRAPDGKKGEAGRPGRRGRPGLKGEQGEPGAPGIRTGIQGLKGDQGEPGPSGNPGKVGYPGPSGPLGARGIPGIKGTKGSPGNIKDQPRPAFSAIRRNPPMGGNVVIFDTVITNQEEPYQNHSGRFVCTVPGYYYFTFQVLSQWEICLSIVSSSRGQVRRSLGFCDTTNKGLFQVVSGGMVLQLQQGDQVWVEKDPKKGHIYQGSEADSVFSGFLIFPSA
human C1q (human), sequence (P02746 28-253 limits assumed, chain 2 of 3, further chain): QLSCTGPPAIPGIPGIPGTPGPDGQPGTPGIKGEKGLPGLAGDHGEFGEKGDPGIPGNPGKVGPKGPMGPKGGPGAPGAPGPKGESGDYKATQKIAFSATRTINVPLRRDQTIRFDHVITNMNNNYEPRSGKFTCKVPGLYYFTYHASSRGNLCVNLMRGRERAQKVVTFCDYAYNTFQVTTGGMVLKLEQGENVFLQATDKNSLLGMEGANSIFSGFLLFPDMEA
human C1q (human), sequence (P02747 29-245 limits assumed, chain 3 of 3, further chain): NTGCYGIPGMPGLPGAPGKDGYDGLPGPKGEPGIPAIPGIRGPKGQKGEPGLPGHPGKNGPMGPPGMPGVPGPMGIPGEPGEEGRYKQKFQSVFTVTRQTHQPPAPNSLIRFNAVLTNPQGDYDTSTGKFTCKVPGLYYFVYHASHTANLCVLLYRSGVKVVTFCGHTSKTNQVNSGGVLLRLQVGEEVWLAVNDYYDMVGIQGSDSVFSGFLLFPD
human FcγRIIa (H131 allele) (human), sequence (P12318 34-218 limits assumed): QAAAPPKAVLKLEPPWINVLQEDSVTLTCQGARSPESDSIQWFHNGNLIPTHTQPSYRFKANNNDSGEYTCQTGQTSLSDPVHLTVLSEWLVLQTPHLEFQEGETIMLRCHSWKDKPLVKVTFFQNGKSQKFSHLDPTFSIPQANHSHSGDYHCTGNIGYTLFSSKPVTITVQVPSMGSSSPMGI
human FcγRIIIa (V158 allele) (human), sequence (P08637 17-208 F176V limits assumed): as the sequence (P08637 17-208 limits assumed) above, with F160V counted along it
human FcγRIIa (R131 allele) (human), sequence (P12318 34-218 H167R limits assumed): as the sequence (P12318 34-218 limits assumed) above, with H134R counted along it
human FcRn (human), sequence (P55899 24-297 limits assumed, chain 1 of 2): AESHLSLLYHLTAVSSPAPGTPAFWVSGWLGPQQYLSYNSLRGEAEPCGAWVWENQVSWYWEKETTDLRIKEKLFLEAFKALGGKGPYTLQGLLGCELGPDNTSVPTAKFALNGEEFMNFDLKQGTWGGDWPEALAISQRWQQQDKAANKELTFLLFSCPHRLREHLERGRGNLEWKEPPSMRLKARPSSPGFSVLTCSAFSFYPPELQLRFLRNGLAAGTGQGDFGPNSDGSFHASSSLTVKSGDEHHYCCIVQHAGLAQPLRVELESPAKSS
human FcRn (human), sequence (chain, as listed by the source limits assumed, chain 2 of 2): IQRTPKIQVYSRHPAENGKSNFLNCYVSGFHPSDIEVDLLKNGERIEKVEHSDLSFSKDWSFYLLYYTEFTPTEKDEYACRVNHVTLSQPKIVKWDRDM

Substance | fold-change vs wt [2] [fold] | fold-change vs wt (human FcRn (human) [4]) [fold] | fold-change vs wt (human C1q (human) [6]) [fold] | fold-change vs wt [7] [fold] | fold-change to WT Fc (human FcRn (human) [8]) [fold] | fold-change to WT Fc (human FcγRIIb (human) [9]) [fold] | fold-change to WT Fc [10] [fold] | fold-change to WT Fc [11] [fold] | fold-change to WT Fc [12] [fold] | fold-change to WT Fc (human C1q (human) [13]) [fold] | fold-change to WT Fc [14] [fold] | fold-change vs wt (human FcγRIIb (human) [19]) [fold] | fold-change vs wt [20] [fold] | fold-change vs wt [22] [fold] | FcγR reporter signaling, fold to wt-fucose [cont'd] [23] [fold] | also measured
IgG1 antibody with Fc variant G236W | 0.12 | 1.09 | 3.63 | 0.54 | 1.09 | 0.652 | 1.06 | 0.469 | 0.117 | 3.66 | 0.541 |  |  |  |  | fold-change vs wt (human FcγRIIb (human) [1]): 0.65 fold; fold-change vs wt [3]: 1.06 fold; fold-change vs wt [5]: 0.47 fold
IgG1 antibody with Fc variant G236Y | 0.12 | 1.05 | 3.22 | 0.56 | 1.05 | 0.547 | 0.735 | 0.418 | 0.116 | 3.25 | 0.559 |  |  |  |  | fold-change vs wt (human FcγRIIb (human) [1]): 0.55 fold; fold-change vs wt [3]: 0.74 fold; fold-change vs wt [5]: 0.42 fold
IgG1 antibody with Fc variant R292P_Y300L |  |  | 2.07 |  | 0.879 | 0.9 | 1.4 | 0.682 | 4.85 | 2.09 | 5.29 | 0.9 | 1.4 | 0.68 |  | FcγR reporter signaling, fold-change vs wt [cont'd] (human FcγRIIb (human) [15]): 0.72 fold; FcγR reporter signaling, fold-change vs wt [cont'd] [16]: 3.66 fold; FcγR reporter signaling, fold-change vs wt [cont'd] [17]: 0.98 fold; FcγR reporter signaling, fold-change vs wt [cont'd] [18]: 7.42 fold; fold-change vs wt [12]: 4.85 fold; fold-change vs wt (human FcRn (human) [21]): 0.88 fold; fold-change vs wt (human C1q (human) [13]): 2.09 fold; fold-change vs wt [14]: 5.29 fold; fold-change vs wt (human FcγRIIIb (human)): 1.72 fold
IgG1 antibody with Fc variant S239D_H268E_G236A |  |  |  |  |  |  |  |  |  |  |  | 5.09 | 11.7 | 53.5 |  | FcγR reporter signaling, fold-change vs wt [cont'd] (human FcγRIIb (human) [15]): 1.8 fold; FcγR reporter signaling, fold-change vs wt [cont'd] [16]: 5.22 fold; FcγR reporter signaling, fold-change vs wt [cont'd] [17]: 2.15 fold; FcγR reporter signaling, fold-change vs wt [cont'd] [18]: 12.8 fold; fold-change vs wt [12]: 7.9 fold; fold-change vs wt (human FcRn (human) [21]): 0.91 fold; fold-change vs wt (human C1q (human) [13]): 0.4 fold; fold-change vs wt [14]: 16.3 fold; fold-change vs wt (human FcγRIIIb (human)): 3.04 fold
IgG1 antibody with Fc variant Y300L | 1.62 | 1.06 | 2.14 | 1.24 | 1.06 | 1.18 | 1.86 | 0.822 | 1.62 | 2.16 | 1.25 | 1.18 | 1.86 | 0.82 |  | 
L309T_P238D_P396L_T366A-afuc (antibody) |  |  |  |  |  |  |  |  |  |  |  |  |  |  | 0.16 | 
R292P_Y300L-afuc (antibody) |  |  |  |  |  |  |  |  |  |  |  |  |  |  | 4.52 | FcγR reporter signaling, fold to wt-fucose [cont'd] [24]: 10.6 fold; fold to wt-fucose (human FcγRIIb (human) [19]): 1.05 fold; fold to wt-fucose [12]: 16.1 fold; fold to wt-fucose [20]: 1.27 fold; fold to wt-fucose (human FcRn (human) [21]): 0.82 fold; fold to wt-fucose [22]: 0.72 fold; fold to wt-fucose [14]: 26.5 fold; fold to wt-fucose (human FcγRIIIb (human)): 4.53 fold
S239D_H268E_G236A-afuc (antibody) |  |  |  |  |  |  |  |  |  |  |  |  |  |  | 5.65 | FcγR reporter signaling, fold to wt-fucose [cont'd] [24]: 11.6 fold; fold to wt-fucose (human FcγRIIb (human) [19]): 6.35 fold; fold to wt-fucose [12]: 84.9 fold; fold to wt-fucose [20]: 13.6 fold; fold to wt-fucose (human FcRn (human) [21]): 1.01 fold; fold to wt-fucose [22]: 62 fold; fold to wt-fucose [14]: 425 fold; fold to wt-fucose (human FcγRIIIb (human)): 38.1 fold
